7 molecules from patent US20180291088A1 can be followed below.

One may read the EC50 as the concentration at which the effect is half-maximal. A high value points to lower potency in that assay.

Several values for one entry are separate records, joined by “and”; a condition that tells them apart may be missing. Equal values may be shown once. A value given as a limit tells only on which side of the number the result lay.

Test [1] concerns the target EBOV GP on pseudotyped lentivirus particles (EBOV , Mayinga) (UniProt Q05320). As to the kind of experiment: cell-based or functional assay.
The target in test [2] is EBOV GP , coated on ELISA plates (EBOV , Mayinga) (UniProt Q05320).
For test [3] the target is unchanged. This is another data set of the same source.
Test [4] has as its target EBOV GP on pseudotyped lentivirus particles (EBOV , Mayinga), Q05320. As to the kind of experiment: cell-based or functional assay.

In the case of 13C6 monoclonal antibody, in test [1], the neutralization of pseudovirus at 10 µg/mL is under 20%. In the case of KZ52 monoclonal antibody, the maximum inhibition of input pseudovirus in test [1] is 80% and 90%.

B1: EVB167 monoclonal antibody (antibody, V domains shown)
VH: AVQLVQSGAEVKKPGTTVKISCKVSGYTFIQEYIHWVQQAPGKGLVWMGLGDPENNETLYSEDFQGRVTMTADTSSDTAYLELRSLTFADTAVYFCTSRKSWWGQGTLVTVAS
VL: ELVLTQSPGTLSLSPGESATLSCRASQSLSSDSVSWFQQKPGQAPRLVIHGTSKRATGIPDRFSGGGSGTDFTLTIARLEPEDFAVYYCQRSGYGMSVTWTFGQGTTVEIK
Take B1: the Abs 450 in test [2] is 3.37 A450 and 2.97 A450.

B2: EVB114 monoclonal antibody (antibody, V domains shown)
VH: EVQLVESGGGLIQPGGSLRLSCAASGFALRMYDMHWVRQTIDKRLEWVSAVGPSGDTYYADSVKGRFAVSRENAKNSLSLQMNSLTAGDTAIYYCVRSDRGVAGLFDSWGQGILVTVSS
VL: DIQMTQSPSSLSASVGDRITITCRASQAFDNYVAWYQQRPGKVPKLLISAASALHAGVPSRFSGSGSGTHFTLTISSLQPEDVATYYCQNYNSAPLTFGGGTKVEIK
Consider B2, for which, in test [3], the EC50 was 0.07 µg/mL and the maximal binding, higher than the other mAbs amounted to 100%. Further, the maximum inhibition of input pseudovirus in test [4] stood at 100%.

B3: EVB100 monoclonal antibody (antibody, V domains shown)
VH: QVQLQESGPGLVKPSDTLSLTCTVSGGSLSSFYWSWIRQPPGKGLEWIGYIYYSGSPNYSPSLESRVTMSVDTTRNQISLKLDSVTAADTAVYYCVRASRSYYWGSYRPTAFDSWGQGTLVTVSS
VL: SYELTQPLSVSVSPGQTAIFTCSGDNLGDKYVCWFQQRPGQSPMLLIYQDNKRPSGIPERFSGSNSGNTATLTISGTQSTDEADYYCQTWDSTVVFGGGTKLTVL
In test [3], B3 came in with an EC50 of 0.26 µg/mL. This molecule also had a maximum inhibition of input pseudovirus in test [4] of 100%.

B4: EVB165 monoclonal antibody (antibody, V domains shown)
VH: DVQLVESGGGVVQPGGSLKLACVVSGFRFSDYWMSWVRQAPGKGLEWVANIKQDGSGKYYVDSVKGRFTVSRDNAKNSLYLHMTSLGAEDTAVYFCARAAPTGSYTNILVDNVHFDYWGQGILVAVSS
VL: GIQLTQSPGSLSASVGDSVTITCRPNQNIATYINWYQQTPGKAPKLLIYAASILQSGVPSRFSGAGSGTHFTLIISTLQPEDSATYYCQQSYSTPWTFGQGTKVEIK
Regarding B4, the Abs 450 in test [2] is 3.17 A450 and 1.72 A450. The molecule also showed a concentration giving a half-maximal response (EC50) in test [3] of over 1 µg/mL. For the same molecule, in test [4], the maximum inhibition of input pseudovirus was determined as 100%.

B5: EVB166 monoclonal antibody (antibody, V domains shown)
VH: QVQLVQSGAEVKKPGSSVKVSCKTSGGTLSNYAISWVRQAPGQGLEWMGGTIPTLGMSTYAPNFQGRVAITADKSTSTAYMELSSLRSDDTAVYYCATMGSADTSFYFYMDVWGKGTTVTVSS
VL: EIVLTQSPGTLSLSPGERATLSCRASQSVSSSYLAWYQQKPGQAPRLLIYGTSSRATGIPDRFSGSASGTDFTLTISRLEPEDFAVYYCQQYAYSPFTFGPGTKVDIK
On to B5, for which, in test [4], the maximum inhibition of input pseudovirus is 100%.
